Test results from the supplement of paper PMC10126150.
± gives the standard deviation of the averaged measurements.

The sequences below were run on ATP (assay: switch fluorescence ratio, 500 uM ATP over buffer (Cy3 cluster intensity, sum of 5 cycles each) (fold (ratio)); higher = stronger signal-on switching upon ATP binding; sequences stand for … in TCGTCGGCAGCGTCAGATGTGTATAAGAGACAGTTTTTTTTTTTTTTTTTTTTTTTTT…TC). Details: aptamer strand: ATP DNA aptamer (quencher-CACCTGGGGGAGTATTGCGGAGGAAGG + anchor), 100 nM annealed; ATP concentration: 500 uM.
In short: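 Imaging in selection buffer was followed by imaging after 15 min with 500 uM ATP at 22 °C, for Cy3-labelled switching-strand clusters annealed to 100 nM quencher-labelled ATP aptamer on a modified Illumina MiSeq flow-cell. Five of these buffer/ATP cycles ran, separated by NaOH stripping and re-annealing. The fluorescence ratio per cluster is summed target-cycle over summed buffer-cycle Cy3 intensity, averaged per switch-domain sequence; clusters outside 100-1000 RFU were removed.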
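Also: ATP exposure 15 min at 22 °C before imaging.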

Sequence	switch fluorescence ratio
GATTTGTTTG	0.985 ± 0.026
GATTTTAGTC	0.993 ± 0.04
GATTTTCAGT	0.975 ± 0.013
GATTTTCCAT	1.03 ± 0.021
GATTTTGACG	1.04 ± 0.067
GATTTTGGAT	0.994 ± 0.012
GATTTTGGCG	1.01 ± 0.046
GATTTTTAGG	0.964 ± 0.015
GATTTTTATC	1.023 ± 0.0031
GATTTTTGGC	0.9945 ± 0.0087
GATTTTTTAC	0.995 ± 0.037
GCAAAAAATT	1.01 ± 0.025
GCAAAAAGGC	1.03 ± 0.015
GCAAAACGGG	1.02 ± 0.069
GCAAAATTGG	1.04 ± 0.02
GCAAACGTTA	1.07 ± 0.043
GCAAAGGGCT	1 ± 0.035
GCAAATGCGT	1.03 ± 0.059
GCAACCACCG	1.137 ± 0.0038
GCAAGAACAG	1.04 ± 0.036
GCAAGAGATA	1.02 ± 0.017
GCAAGGAGCG	1.03 ± 0.039
GCAAGGAGGA	0.996 ± 0.014
GCAAGTGCAC	0.978 ± 0.04
GCAAGTTACG	1.14 ± 0.041

Sequence	switch fluorescence ratio
GCAAGTTAGA	1 ± 0.017
GCAAGTTGGG	1.01 ± 0.028
GCAATAATGC	1.603 ± 0.014
GCAATGATGT	1.06 ± 0.03
GCAATGGTAC	2.21 ± 0.098
GCAATGTAGG	1.04 ± 0.03
GCAATTGCTG	0.9802 ± 0.0023
GCAATTTAGA	1.02 ± 0.016
GCAATTTCAG	1.05 ± 0.021
GCACACCAGT	1.04 ± 0.014
GCACACCGAG	1.083 ± 0.0059
GCACATGGCA	1.02 ± 0.015
GCACATGGTG	1.05 ± 0.021
GCACATTATG	0.985 ± 0.011
GCACCAAGGA	1.07 ± 0.036
GCACCTATAT	1.04 ± 0.039
GCACGCAACT	1.32 ± 0.013
GCACGCGGGG	1.009 ± 0.0015
GCACGCTAGG	1.07 ± 0.041
GCACGTTTTT	1 ± 0.03
GCAGAAGGTA	1.01 ± 0.029
GCAGAGGGC	1 ± 0.012
GCAGAGGGGA	0.981 ± 0.039
GCAGAGTCGT	0.999 ± 0.037
GCAGCAGGGT	1.101 ± 0.0034

Sequence	switch fluorescence ratio
GCAGCCGAGT	1.013 ± 0.0098
GCAGGAATTC	1.05 ± 0.042
GCAGGACGGG	1.4 ± 0.64
GCAGGAGGGG	0.965 ± 0.074
GCAGGGATAC	3.4 ± 0.048
GCAGGGATGA	0.994 ± 0.0052
GCAGGGGCTG	1.02 ± 0.016
GCAGGGGGCG	1.04 ± 0.051
GCAGGGGGGC	1.03 ± 0.035
GCAGGGTAGC	1.04 ± 0.012
GCAGGGTGGG	1.02 ± 0.028
GCAGGTCAAT	1.03 ± 0.018
GCAGGTCGCG	1.01 ± 0.024
GCAGGTTGAC	1.034 ± 0.003
GCAGGTTGAG	1.01 ± 0.044
GCAGGTTGGC	0.992 ± 0.029
GCAGTACTTT	1.5 ± 0.12
GCAGTAGCAA	1.08 ± 0.03
GCAGTATAGC	0.99 ± 0.011
GCAGTATGGG	1 ± 0.028
GCAGTATTCC	1.66 ± 0.11
GCAGTCCCGT	1.03 ± 0.015
GCAGTTAGTT	1.01 ± 0.033
GCAGTTGGAA	1.058 ± 0.0089
GCATAAGGGT	1.01 ± 0.038

Sequence	switch fluorescence ratio
GCATATCCGG	1.02 ± 0.011
GCATATGATC	1.05 ± 0.021
GCATATTTTG	0.994 ± 0.029
GCATCAATGG	1.06 ± 0.014
GCATCATTCA	1.03 ± 0.017
GCATCATTTA	1.009 ± 0.0059
GCATCCTGGA	0.969 ± 0.058
GCATGAACAT	0.98 ± 0.026
GCATGAGAGG	0.987 ± 0.021
GCATGAGGGT	1.03 ± 0.072
GCATGCGGGA	1.02 ± 0.074
GCATGGAAGA	0.992 ± 0.015
GCATGGCTGG	1.017 ± 0.00012
GCATGGGCTG	1.04 ± 0.019
GCATGGGGCG	1.037 ± 0.0041
GCATGGGGTG	1.069 ± 0.0081
GCATGGGGTT	0.998 ± 0.031
GCATGTGTAT	1.01 ± 0.031
GCATTAAAGT	0.958 ± 0.033
GCATTAAGAA	1.01 ± 0.018
GCATTAAGGA	1.058 ± 0.008
GCATTACTTG	1.16 ± 0.027
GCATTAGGGA	0.989 ± 0.024
GCATTCCGAA	1.22 ± 0.028
GCATTGAGTG	0.978 ± 0.03
